Here are results for 1 substance from PMC6831629.

The assay has as its target myc-tagged Trpc1 (transient receptor potential canonical subfamily member 1) (X. laevis). The experiment in a line: co-IP; mRNAs co-injected into 4-cell stage X. laevis embryos (200 pg/cell each); 12 animal caps (stage 8-9) lysed in SOFT buffer (50 mM Tris pH 7.4, 100 mM NaCl, 5 mM EDTA, 0.05% NP40, 1% Triton X100); 120 µg protein precipitated with anti-HA or anti-Myc antibodies and A/G protein beads; blots with anti-HA and anti-Myc; animal caps with or without 2 µg/mL noggin for 15 min before lysis.

With “HA-tagged BMP receptor type II, full length”, the fold change of the co-immunoprecipitated fraction with noggin against without noggin was 1.64 fold.
